Here are results for five molecules from patent publication US9958461B2, “Detection of protein to protein interactions” (THE GOVERNING COUNCIL OF THE UNIVERSITY OF TORONTO, priority 2013, dated 2018).

B1: LYN (protein, UniProt P07948 2-512, looked up)
Tyrosine-protein kinase Lyn: GCIKSKGKDSLSDDGVDLKTQPVRNTERTIYVRDPTSNKQQRPVPESQLLPGQRFQTKDPEEQGDIVVALYPYDGIHPDDLSFKKGEKMKVLEEHGEWWKAKSLLTKKEGFIPSNYVAKLNTLETEEWFFKDITRKDAERQLLAPGNSAGAFLIRESETLKGSFSLSVRDFDPVHGDVIKHYKIRSLDNGGYYISPRITFPCISDMIKHYQKQADGLCRRLEKACISPKPQKPWDKDAWEIPRESIKLVKRLGAGQFGEVWMGYYNNSTKVAVKTLKPGTMSVQAFLEEANLMKTLQHDKLVRLYAVVTREEPIYIITEYMAKGSLLDFLKSDEGGKVLLPKLIDFSAQIAEGMAYIERKNYIHRDLRAANVLVSESLMCKIADFGLARVIEDNEYTAREGAKFPIKWTAPEAINFGCFTIKSDVWSFGILLYEIVTYGKIPYPGRTNADVMTALSQGYRMPRVENCPDELYDIMKMCWKEKAEERPTFDYLQSVLDDFYTATEGQYQQQP
B2: PTPN18 (protein, UniProt Q99952 1-460, looked up)
Tyrosine-protein phosphatase …: MSRSLDSARSFLERLEARGGREGAVLAGEFSDIQACSAAWKADGVCSTVAGSRPENVRKNRYKDVLPYDQTRVILSLLQEEGHSDYINGNFIRGVDGSLAYIATQGPLPHTLLDFWRLVWEFGVKVILMACREIENGRKRCERYWAQEQEPLQTGLFCITLIKEKWLNEDIMLRTLKVTFQKESRSVYQLQYMSWPDRGVPSSPDHMLAMVEEARRLQGSGPEPLCVHCSAGCGRTGVLCTVDYVRQLLLTQMIPPDFSLFDVVLKMRKQRPAAVQTEEQYRFLYHTVAQMFCSTLQNASPHYQNIKENCAPLYDDALFLRTPQALLAIPRPPGGVLRSISVPGSPGHAMADTYAVVQKRGAPAGAGSGTQTGTGTGTGARSAEEAPLYSKVTPRAQRPGAHAEDARGTLPGRVPADQSPAGSGAYEDVAGGAQTGGLGFNLRIGRPKGPRDPPAEWTRV
B3: Pdgfra (protein, UniProt P26618 25-1089, looked up)
Platelet-derived growth …: LLLPSILPNENEKIVQLNSSFSLRCVGESEVSWQHPMSEEDDPNVEIRSEENNSGLFVTVLEVVNASAAHTGWYTCYYNHTQTDESEIEGRHIYIYVPDPDMAFVPLGMTDSLVIVEEDDSAIIPCRTTDPETQVTLHNNGRLVPASYDSRQGFNGTFSVGPYICEATVKGRTFKTSEFNVYALKATSELNLEMDARQTVYKAGETIVVTCAVFNNEVVDLQWTYPGEVRNKGITMLEEIKLPSIKLVYTLTVPKATVKDSGEYECAARQATKEVKEMKRVTISVHEKGFVEIEPTFGQLEAVNLHEVREFVVEVQAYPTPRISWLKDNLTLIENLTEITTDVQKSQETRYQSKLKLIRAKEEDSGHYTIIVQNEDDVKSYTFELSTLVPASILDLVDDHHGSGGGQTVRCTAEGTPLPEIDWMICKHIKKCNNDTSWTVLASNVSNIITELPRRGRSTVEGRVSFAKVEETIAVRCLAKNNLSVVARELKLVAPTLRSELTVAAAVLVLLVIVIVSLIVLVVIWKQKPRYEIRWRVIESISPDGHEYIYVDPMQLPYDSRWEFPRDGLVLGRILGSGAFGKVVEGTAYGLSRSQPVMKVAVKMLKPTARSSEKQALMSELKIMTHLGPHLNIVNLLGACTKSGPIYIITEYCFYGDLVNYLHKNRDSFMSQHPEKPKKDLDIFGLNPADESTRSYVILSFENNGDYMDMKQADTTQYVPMLERKEVSKYSDIQRSLYDRPASYKKKSMLDSEVKNLLSDDDSEGLTLLDLLSFTYQVARGMEFLASKNCVHRDLAARNVLLAQGKIVKICDFGLARDIMHDSNYVSKGSTFLPVKWMAPESIFDNLYTTLSDVWSYGILLWEIFSLGGTPYPGMMVDSTFYNKIKSGYRMAKPDHATSEVYEIMVQCWNSEPEKRPSFYHLSEIVENLLPGQYKKSYEKIHLDFLKSDHPAVARMRVDSDNAYIGVTYKNEEDKLKDWEGGLDEQRLSADSGYIIPLPDIDPVPEEEDLGKRNRHSSQTSEESAIETGSSSSTFIKREDETIEDIDMMDDIGIDSSDLVEDSFL
B4: SLA2 (protein, UniProt Q9H6Q3 2-261, looked up)
Src-like-adapter 2: GSLPSRRKSLPSPSLSSSVQGQGPVTMEAERSKATAVALGSFPAGGPAELSLRLGEPLTIVSEDGDWWTVLSEVSGREYNIPSVHVAKVSHGWLYEGLSREKAEELLLLPGNPGGAFLIRESQTRRGSYSLSVRLSRPASWDRIRHYRIHCLDNGWLYISPRLTFPSLQALVDHYSELADDICCLLKEPCVLQRAGPLPGKDIPLPVTVQRTPLNWKELDSSLLFSEAATGEESLLSEGLRESLSFYISLNDEAVSLDDA
B5: STAT1 (protein, UniProt P42224 2-750, looked up)
Signal transducer and …: SQWYELQQLDSKFLEQVHQLYDDSFPMEIRQYLAQWLEKQDWEHAANDVSFATIRFHDLLSQLDDQYSRFSLENNFLLQHNIRKSKRNLQDNFQEDPIQMSMIIYSCLKEERKILENAQRFNQAQSGNIQSTVMLDKQKELDSKVRNVKDKVMCIEHEIKSLEDLQDEYDFKCKTLQNREHETNGVAKSDQKQEQLLLKKMYLMLDNKRKEVVHKIIELLNVTELTQNALINDELVEWKRRQQSACIGGPPNACLDQLQNWFTIVAESLQQVRQQLKKLEELEQKYTYEHDPITKNKQVLWDRTFSLFQQLIQSSFVVERQPCMPTHPQRPLVLKTGVQFTVKLRLLVKLQELNYNLKVKVLFDKDVNERNTVKGFRKFNILGTHTKVMNMEESTNGSLAAEFRHLQLKEQKNAGTRTNEGPLIVTEELHSLSFETQLCQPGLVIDLETTSLPVVVISNVSQLPSGWASILWYNMLVAEPRNLSFFLTPPCARWAQLSEVLSWQFSSVTKRGLNVDQLNMLGEKLLGPNASPDGLIPWTRFCKENINDKNFPFWLWIESILELIKKHLLPLWNDGCIMGFISKERERALLKDQQPGTFLLRFSESSREGAITFTWVERSQNGGEPDFHAVEPYTKKELSAVTFPDIIRNYKVMAAENIPENPLKYLYPNIDKDHAFGKYYSRPKEAPEPMELDGPKGTGYIKTELISVSEVHPSRLQTTDNLLPMSPEEFDEVSRIVGSVEFDSMMNTV

The target in one experiment is T1, EGFR-L858R (Homo sapiens, UniProt P00533, L858R).
T1 construct: with the advantage of testing full-length integral membrane proteins; (GGGGS)2 linker-Cub (human ubiquitin aa 35-76)-GAL4(1-147)-mNFkB(364-550) (C); expressed in transfected cells
Briefly: MaMTH EGFR-interactor screen, lentiviral preys against EGFR-L858R bait (interaction score). The format is cell-based. Particulars: MaMTH interaction score of prey with EGFR-L858R bait. The gist of the method:
(§1)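 Interaction score is the luciferase fold-change versus averaged negative controls (Fabp5, Pex19, Pex7, GABBR2), with >1 called interacting. Luciferase was measured 24 h after triplicate bait transfection. This followed single-copy prey transduction (MOI ~0.3-0.4) of GAL4UAS-luciferase HEK293T cells and ≥48 h puromycin selection.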
In turn, B1 returned an EGFR-L858R mean of 9.74.
On the same count and under the same terms, with B2 the figure was 2.18; with B3, 13.73.
Turning to B4, the EGFR-L858R mean was determined as 3.11.
Molecule B5 returned an EGFR-L858R mean of 6.80.

For a further experiment, the system named is EGFR-Wt. The experiment is described as follows: MaMTH EGFR-interactor screen, lentiviral preys against EGFR-wildtype bait (interaction score). The class given is cell-based, human. The following applies: ratio of EGFR-Wt mean to EGFR-L858R mean interaction score. The gist of the method:
as §1
Take B1: the Wt/L858R stood at 0.71.
As to B2, the Wt/L858R was 0.71.
On to B3, for which the Wt/L858R amounted to 0.67.
Still for that read-out and setting: with B4 the figure was 0.71.
On to B5, for which the Wt/L858R amounted to 0.69.

The target in another experiment is T2, EGFR-Wt (Homo sapiens, UniProt P00533).
T2 construct: with the advantage of testing full-length integral membrane proteins; (GGGGS)2 linker-Cub (human ubiquitin aa 35-76)-GAL4(1-147)-mNFkB(364-550) (C); expressed in transfected cells
The experiment is described as above. The class given is cell-based. Particulars: MaMTH interaction score of prey with EGFR-Wt bait, mean. A digest of the protocol:
as §1
As to B1, the EGFR-Wt mean was found to be 6.92.
B2 yielded an EGFR-Wt mean of 1.54.
With B3, the EGFR-Wt mean is 9.18.
The same measure, in the same setting: under B4 stands 2.22.
B5 registered an EGFR-Wt mean of 4.70.
